In patent publication US20200317807A1:

T1: CD70 (human) (UniProt P32970)
T1 sequence: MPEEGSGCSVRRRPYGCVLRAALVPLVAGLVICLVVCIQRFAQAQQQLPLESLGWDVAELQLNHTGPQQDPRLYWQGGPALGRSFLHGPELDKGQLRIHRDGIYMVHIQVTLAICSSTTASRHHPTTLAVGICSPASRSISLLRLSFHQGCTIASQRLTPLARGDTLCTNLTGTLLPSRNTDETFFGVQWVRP

B1: mCD27-CD3ζ CAR (full-length mouse CD27 and a mouse CD3ζ T cell intracellular signaling domain) (receptor)
chain: PNSCPDKHYWTGGGLCCRMCEPGTFFVKDCEQDRTAAQCDPCIPGTSFSPDYHTRPHCESCRHCNSGFLIRNCTVTANAECSCSKNWQCRDQECTECDPPLNPALTRQPSETPSPQPPPTHLPHGTEKPSWPLHRQLPNSTVYSQRSSHRPLCSSDCIRIFVTFSSMFLIFVLGAILFFHQRRNHGPNEDRQAVPEEPCPYSCPREEEGSAIPIQEDYRKPEPAFYPRAKFSRSAETAANLQDPNQLYNELNLGRREEYDVLEKKRARDPEMGGKQQRRRNPQEGVYNALQKDKMAEAYSEIGTKGERRRGKGHDGLYQGLSTATKDTYDALHMQTLAPR
B2: full length (f) CD27-CD3ζ CAR (full-length human CD27 and a human CD3ζ T cell intracellular signaling domain) (receptor)
chain: ATPAPKSCPERHYWAQGKLCCQMCEPGTFLVKDCDQHRKAAQCDPCIPGVSFSPDHHTRPHCESCRHCNSGLLVRNCTITANAECACRNGWQCRDKECTECDPLPNPSLTARSSQALSPHPQPTHLPYVSEMLEARTAGHMQTLADFRQLPARTLSTHWPPQRSLCSSDFIRILVIFSGMFLVFTLAGALFLHQRRKYRSNKGESPVEPAEPCRYSCPREEEGSTIPIQEDYRKPEPACSPRVKFSRSADAPAYQQGQNQLYNELNLGRREEYDVLDKRRGRDPEMGGKPRRKNPQEGLYNELQKDKMAEAYSEIGMKGERRRGKGHDGLYQGLSTATKDTYDALHMQALPPR

Experiments:
[1] = biological target: mouse CD70 (mouse) (UniProt O55237); experiment: cell-based or functional assay
Chain of UniProt O55237 (O55237 whole entry): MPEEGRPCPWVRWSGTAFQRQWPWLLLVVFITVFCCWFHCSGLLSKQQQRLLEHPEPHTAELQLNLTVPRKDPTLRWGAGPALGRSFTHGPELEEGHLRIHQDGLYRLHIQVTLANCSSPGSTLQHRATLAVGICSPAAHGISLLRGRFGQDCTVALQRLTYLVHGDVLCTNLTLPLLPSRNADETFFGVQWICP

[2] = biological target: T1, CD70 (human); experiment: cell-based or functional assay

Binder	IFN-γ (pg/ml), mouse T cells/mCD27-CD3ζ CAR co-cultured with B16/mCD70 [1] [pg/mL]	IFN-γ (pg/ml), co-culture with 624/CD70 (CD70 Positive) [2] [pg/mL]	IFN-γ (pg/ml), co-culture with RCC 1581 (CD70 Pos) [2] [pg/mL]	IFN-γ (pg/ml), co-culture with RCC 2095R (CD70 Pos) [2] [pg/mL]	IFN-γ (pg/ml), co-culture with RCC 2219R (CD70 Pos) [2] [pg/mL]	IFN-γ (pg/ml), co-culture with RCC 2245R (CD70 Pos) [2] [pg/mL]	IFN-γ (pg/ml), co-culture with RCC 2246R (CD70 Pos) [2] [pg/mL]	IFN-γ (pg/ml), co-culture with RCC 2261R (CD70 Pos) [2] [pg/mL]	IFN-γ (pg/ml), co-culture with RCC 2361R (CD70 Pos) [2] [pg/mL]	IFN-γ (pg/ml), co-culture with RCC 2654R (CD70 Pos) [2] [pg/mL]	IFN-γ (pg/ml), co-culture with RCC 2657R (CD70 Pos) [2] [pg/mL]
B1	642000	–	–	–	–	–	–	–	–	–	–
B2	–	6480	11800	5820	12100	9110	8220	7270	2260	7890	3510
